From article PMC2241890 come the findings set out here.

Holding throughout (assay): EMSA
In data set [1] the target is T1, HU alpha-beta heterodimer (Escherichia coli, UniProt P0ACF0;P0ACF4 1-90;1-90).
Data set [2] addresses T1, HU alpha-beta heterodimer. The source holds these as a separate data set.
Data set [3] concerns the target T1, HU alpha-beta heterodimer. The source holds these as a separate data set.
Data set [4] has as its target T1, HU alpha-beta heterodimer. This is another data set of the same source.
The target in data set [5] is T1, HU alpha-beta heterodimer. The source holds these as a separate data set.
For data set [6], the target named is T1, HU alpha-beta heterodimer. The source holds these as a separate data set.
The target of data set [7] is T1, HU alpha-beta heterodimer. This is another data set of the same source.
For data set [8], the target named is T1, HU alpha-beta heterodimer. This is another data set of the same source.
In data set [9] the target is T1, HU alpha-beta heterodimer. This is another data set of the same source.
The target in data set [10] is T1, HU alpha-beta heterodimer. The source holds these as a separate data set.

Where a chain is given by its changes, count along the chain named. Read-outs that look alike come from different tables or passages of the source.

T1 sequence (P0ACF0 whole entry, chain 1 of 2): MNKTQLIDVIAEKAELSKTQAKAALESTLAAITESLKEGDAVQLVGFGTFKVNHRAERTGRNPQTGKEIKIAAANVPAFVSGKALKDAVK
T1 sequence (P0ACF4 whole entry, chain 2 of 2): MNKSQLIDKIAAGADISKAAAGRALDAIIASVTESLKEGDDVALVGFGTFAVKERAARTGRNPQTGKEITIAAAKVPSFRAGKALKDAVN

One may read the Kd as the equilibrium constant for the complex coming apart. A high value points to weaker binding. Take AGTCTAGAGTGCAGTTGAGTCCTTGCTACGACGGAT (ssDNA) [ssDNA D-36]: the Kd in data set [1] stood at 80 nM.

Take AGTCTAGAGTGCAGTTGAGTCCTTGCTACGAC (ssDNA) [ssDNA D-32]: the dissociation constant Kd in [2] was determined as 114 nM.

B1: mismatch 4 (dsDNA)
DNA 1: AGTCTAGACTGCAGTTGAGTCCTTGCTAGGACGGATCCCT
DNA 2: AGGGATCCGTCCTAGCAAATGTTCAACTGCAGTCTAGACT
Molecule B1 registered a Kd in data set [3] of 21 nM.

B2: nicked 40 (dsDNA)
DNA 1: B1 DNA 1 with C9G, G29C
DNA 2: AGGGATCCGTCGTAGCAAGG
DNA 3: ACTCAACTGCACTCTAGACT
Molecule B2 showed a dissociation constant (Kd) in [4] of 3 nM.

B3: mismatch 10 (dsDNA)
DNA 1: B1 DNA 1
DNA 2: AGGGATCCGTCCTAGTTGATGTAGCACTGCAGTCTAGACT
In data set [5], B3 returned a Kd of 6 nM. This lies in the single-digit nanomolar range.

On to AGTCTAGAGTGCAGTTGAGTCCTTGCTACGACGGATCCCT (ssDNA) [ssDNA D-40], for which the dissociation constant (Kd) in data set [6] was 54 nM. That is a double-digit nanomolar value.

B4: dsDNA 40 (dsDNA)
DNA 1: B1 DNA 1 with C9G, G29C
DNA 2: AGGGATCCGTCGTAGCAAGGACTCAACTGCACTCTAGACT
In data set [7], B4 had a Kd of 7 nM.

B5: mismatch 8 (dsDNA)
DNA 1: B1 DNA 1
DNA 2: B3 DNA 2 with T16C, C25A
In data set [5], B5 gave a Kd of 6 nM.

B6: mismatch 6 (dsDNA)
DNA 1: B1 DNA 1
DNA 2: B1 DNA 2 with A18G, T23A
Consider B6, for which the affinity in [5], expressed as Kd, was 6 nM.

Regarding AGTCTAGAGTGCAGTTGAGTCCTTGCTACGACGGATCCCTTAGG (ssDNA) [ssDNA D-44], the Kd in [8] amounted to 40 nM.

AGTCTAGAGTGCAGTTGAGTCCTT (ssDNA) [ssDNA D-24]: the binding result in [9] is on record as “binds”.

In data set [1], AGTCTAGAGTGCAGTTGAGTCCTTGCTACGACGGATCCCTTAGGTCAG (ssDNA) [ssDNA D-48] registered a Kd of 41 nM.

In the case of AGTCTAGAGTGCAGTTGAGTCCTTGCTA (ssDNA) [ssDNA D-28], the Kd in data set [10] turned out to be 755 nM.
